Results as given in patent US9365836B2, “Glycosyltransferase gene and use thereof” (SUNTORY HOLDINGS LIMITED, priority 2011, dated 2016).

B1: NmGT3: Nemophila glycosyltransferase (SEQ ID NO: 2, cDNA SEQ ID NO: 1) expressed in Escherichia coli, His-Tag purified (protein, listed as Nemophila menziesii)
chain: MPSILSNSAHILLFPFPTSGHIIPILDLANQLLARGLTITILITPANLTLLSTQLIELDRLGSLHTLVLPFPNPPNPSETSLAARVHASSQLSNTIIQWFQSHTSPPVAIVSDFFLGWTNSLASQLGIPRLVFWPSGVQRSSLVDYIWQNDQLSDSDHQIQDNSVISFPDVPNSPAYPKWQACGLSTQYKKGDPSWEFFKNGVLANTQSWGAIYNSFRDLEGVYIDYIKKKMGHGRVWAVGPLLPANDASKRGGSCVMPIDDVMTWLDTKTNSDNSVVYVCFGSRVELTTEQLDSLAAALEISGVHFILCVKLHQEISKEYEDRVAGRGLIIRGWAPQVAILRHRAVGAFLTHCGWNSILEGIAAGVVMLTWPMGADQFTNANLLVDELKVAMKACEGGDSNVPNPAMLANVLAESINGGRAERERVTELCDAALKAVQSGNGSSAKDLDSLTNQLNGLKVKIN
modifications: His-tag
B2: NmGT4: Nemophila glycosyltransferase (SEQ ID NO: 4, cDNA SEQ ID NO: 3) expressed in Escherichia coli, His-Tag purified (protein, listed as Nemophila menziesii)
chain: MAAQLHVVFFPFMAQGHLIPTLEMVKLFSSRGLKTTIVTTKFYAPAVTKSIEKTKHTGNQINIIIIKFPSAEVGLPEGSESLDKLKSPDMFMKFFKALSLLQEPFEQILQELSPDCIVSDMFFPWTTASAAKFDIPRFVFHGLSLFALCVSENMRFYKPFKNLGSESLDSEPVMLPDFPNQIEFSKVQVPEFEVGESKNEIMELLNQVKESEVKSYGIIINSFNELEKDYVDYYRNVWGRRAWLLGPLSLSNRDDEVKDQTDEHGSLKWLDSKKPDSVIYVCFGSVAPLSSSQLHEIALGLESSGQQFIWVVKEREDGEKWLPEGFEERIKDKGLIIRGWAPQVSILEHESTGGFVTHCGWNSVLEAVSAGVVMATLPTFAEQPFNEKLLTKVLKIGIPIGSPLSNRGKSGVKKEEIAEAMKGIMEGEEALEMRIRAKSLKEMAWKAVEEGGSSYNDLTSLIDGVKAYRSQSNKI
modifications: His-tag
B3: SuGT5: Salvia uliginosa glycosyltransferase (SEQ ID NO: 13, cDNA SEQ ID NO: 12) expressed in Escherichia coli, His-Tag purified (protein, listed as Salvia uliginousa)
chain: MKQLHIALFPSMAHGHMIPMFELAKLFTSRGLKATIIATPAFAAPITKAQQSGLDVGLAITPFPPKGSSLPQNIIAFDQMTNPDLTTSFLRAMELLQEPVEAILQELHPDCLVSDMFLPWTADSAAKFQIPRLAFYGTSYFSRCVSEQVGDKPFNNVTSDSEPVLVPGLPQQIKFVRSQFSPVLLEETQNDFAKLFKQMTEAWKKTYGEVVNSFNELESDYANHYKNVIGRKAWEIGPLLLCSSSKGGEKNQQRGKESAIDEHECLAWLDSKNPNSVVYVCAGSVASFSQAQLRETAMGLEASGQNFVWVVRKNKEDDDDWLPVGFEERVGNRGLIIRGWAPQVMILNHAAVGAFVTHCGWNSTLEGVCAGLPMVTWPVFAEQFFNEKLVTEVLGTGVSVGNKRWMLRESEGVERDAVARAVEEIMVGGGAEEMRSRAENYKEMAKKAVEEGGSSYNNLNALIEELSNYVAPTIQDKN
modifications: His-tag

Legend:
Format in all cases: biochemical
[1] = Determination of enzyme activity of candidate glycosyltransferases, crude enzyme from Escherichia coli (HPLC); conditions: crude enzyme solution, substrate apigenin, UDP-glucose, 30° C., 1 hour
Experimental: pET-NmGT0 through pET-NmGT9 were introduced into Escherichia coli strain BL2 using the One Shot BL21 (DE3) (Invitrogen) according to a protocol recommended by the manufacturer to obtain transformed Escherichia coli. The Escherichia coli was cultured, using the Overnight Express Autoinduction System 1 (Novagen) according to a protocol recommended by the manufacturer. With 2 ml of the culture liquid prepared, the transformed Escherichia coli was cultured at 37° C. (about 4 hours) until the OD600 value reached 0.5. To this Escherichia coli solution as the preculture, 50 ml of the culture liquid was added and then subjected to the main culture overnight at 27° C. […]
80 μl of the crude enzyme solution, 20 μl of 5 mM UDP-glucose, 20 μl of 1M Tris HCl (pH 7.5), and 1 μl of 500 ng/μl apigenin were prepared on ice to 200 μl in water, and the reaction mixture obtained was maintained at 30° C. for 1 hour. Subsequently, 200 μl of the stopping buffer (a 90% acetonitrile aqueous solution containing 0.1% TFA) was added to stop the reaction, and analyzed with a high performance liquid chromatography (Prominence (Shimadzu)). The detector used is Shimadzu PDA SPD-M10AVP, and the flavone was detected at 330 nm. […]

[2] = Determination of enzyme activity of His-Tag-purified NmGT3 and NmGT4 protein solutions (HPLC); conditions: for product biosynthesized from apigenin 7-glucoside: substrate 50 ng/μl apigenin 7-glucoside, same condition; for product biosynthesized from apigenin: substrate 500 ng/μl apigenin, UDP-glucose, 30° C., 20 minutes; for product biosynthesized from apigenin 4′-glucoside: substrate apigenin 4′-glucoside, same condition (not shown)
Experimental: The Escherichia coli strain BL2 in which pET-NmGT3 or pET-NmGT4 described in Example 5 was introduced was cultured, using the Overnight Express Autoinduction System 1 (Novagen) according to a protocol recommended by the manufacturer. With 8 ml of the culture liquid prepared, the transformed Escherichia coli was cultured at 37° C. (about 4 hours) until the OD600 value reached 0.5. To this Escherichia coli solution as the preculture, 200 ml of the culture liquid was added and then subjected to the main culture overnight at 25° C.
The overnight-cultured Escherichia coli solution was centrifuged (1000×g, 4° C., 10 minutes), and the cells collected were suspended in 20 ml of a buffer (composition: NaCl: 0.5 M, Tris HCl (pH 7.9): 20 mM, imidazole: 5 mM, amidinophenyl methanesulfonyl fluoride hydrochloride (APMSF): 10 μM), and Escherichia coli was disrupted by sonication. The cells were then centrifuged (1400×g, 4° C., 20 minutes), and the supernatant was collected. The supernatant was passed through a 0.45 μm filter to His-Tag-purify using the Profinia (Bio-Rad) according to a protocol recommended by the manufacturer. The purified protein solution thus obtained was centrifuged (7500×g, 4° C., 15 minutes) using the Centrifugal filters (Ultracel-10K) (Amicon Ultra), and the concentrated protein solution was termed as “NmGT3 protein solution” and “NmGT4 protein solution”. For centrifugation, the Avanti HP-26 XP (rotor: JA-2) was used (BECKMAN COULTER).
(§1) 20 μl of the protein solution, 20 μl of 5 mM UDP-glucose, 20 μl of 1M Tris HCl (pH 7.5), and 1 μl of 500 ng/μl apigenin were mixed and prepared on ice to 200 μl in water, and the reaction mixture obtained was maintained at 30° C. for 20 minutes. Subsequently, 200 μl of the stopping buffer (a 90% acetonitrile aqueous solution containing 0.1% TFA) was added to stop the reaction, and analyzed with a high performance liquid chromatography (Prominence (Shimadzu)). The detector used is Shimadzu PDA SPD-M10AVP, and the flavone was detected at 330 nm. The column used is Shim-Pack ODS 150 mm×4.6 mm (Shimadzu). In elution, solution A (a 0.1% TFA aqueous solution) and solution B (a 90% methanol aqueous solution containing 0.1% TFA) were used. A linear gradient from a 8:2 mixture of the two solutions to a 3:7 mixture over 10 minutes and then a 3:7 mixture over 6 minutes were used in elution. The flow rate was set at 0.6 ml/minute.

[3] = Reactivity to various flavonoid compounds and betanidine (FIG. 13)
[4] = Determination of enzyme activity of His-Tag-purified SuGT protein solutions from Salvia uliginosa (HPLC)
Experimental: Escherichia coli expression constructs (pET-SuGT2, 5, 10) were created in a manner similar to that described in Example 5.
In a manner similar to that described in Example 5, “SuGT2 protein solution”, “SuGT5 protein solution” and “SuGT10 protein solution” were prepared.
as §1, with “20 μl of the protein solution, 20 μl of 5 mM UDP-glucose, 20 μl of 1M Tris HCl (pH 7.5), and 1 μl of 500 ng/μl apigenin were mixed and prepared on ice to 200 μl in water, and the reaction mixture obtained was maintained at 30° C. for 20 minutes.” left out

| Molecule | HPLC peaks after reaction of crude enzyme with apigenin [1] | product biosynthesized from apigenin 7-glucoside [2] | product biosynthesized from apigenin [2] | product biosynthesized from apigenin 4′-glucoside [2] | reactivity to various flavonoid compounds and betanidine [3] | product biosynthesized from apigenin 7-glucoside ([4]; substrate 500 ng/μg apigenin 7-glucoside, same condition) | product biosynthesized from apigenin ([4]; substrate 500 ng/μg apigenin, UDP-glucose, 30° C., 90 minutes) |
| --- | --- | --- | --- | --- | --- | --- | --- |
| B1 | peaks other than that of the substrate were observed | a flavone exhibiting the same retention time and the same absorption maximum as the purified apigenin 4′,7-diglucoside product was biosynthesized | a flavone exhibiting the same retention time and the same absorption maximum as the purified apigenin 4′,7-diglucoside product had been biosynthesized | a flavone exhibiting the same retention time and the same absorption maximum as the apigenin 4′,7-diglucoside purified product was biosynthesized | found to have an activity for not only apigenin and its glycosides but for luteolin and its glycosides and flavonol and its glycosides | – | – |
| B2 | peaks other than that of the substrate were observed | a flavone exhibiting the same retention time and the same absorption maximum as the purified apigenin 4′,7-diglucoside product was biosynthesized | a flavone exhibiting the same retention time and the same absorption maximum as the purified apigenin 4′,7-diglucoside product had been biosynthesized | a flavone exhibiting the same retention time and the same absorption maximum as the apigenin 4′,7-diglucoside purified product was biosynthesized | found to have an activity for not only apigenin and its glycosides but for luteolin and its glycosides and flavonol and its glycosides | – | – |
| B3 | – | – | – | – | found to have an activity for not only apigenin and its glycosides but for luteolin and its glycosides and flavonol and its glycosides | a flavone exhibiting the same retention time and the same absorption maximum as the purified apigenin 4′,7-diglucoside product was biosynthesized | a flavone exhibiting the same retention time and the same absorption maximum as the purified apigenin 4′,7-diglucoside product had been biosynthesized |
